Reference: patent publication US20220411483A1 (Chugai, published 2022)

T1: FcγRIIb extracellular domain with C-terminal His tag (human, UniProt P31994 43-217)
T1 construct: extracellular domain; also called FcgRIIb; not shown: His tag at the C terminus
T1 sequence (looked up): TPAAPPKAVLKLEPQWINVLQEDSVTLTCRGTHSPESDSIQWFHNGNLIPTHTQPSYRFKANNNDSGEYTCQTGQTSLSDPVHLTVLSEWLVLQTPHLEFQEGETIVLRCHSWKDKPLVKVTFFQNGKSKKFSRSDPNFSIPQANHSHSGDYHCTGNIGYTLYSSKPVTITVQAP

T2: FcγRIIa R type extracellular domain with C-terminal His tag (human, UniProt P12318 34-217)
T2 construct: extracellular domain; also called FcgRIIaR; not shown: His tag at the C terminus
T2 sequence (looked up): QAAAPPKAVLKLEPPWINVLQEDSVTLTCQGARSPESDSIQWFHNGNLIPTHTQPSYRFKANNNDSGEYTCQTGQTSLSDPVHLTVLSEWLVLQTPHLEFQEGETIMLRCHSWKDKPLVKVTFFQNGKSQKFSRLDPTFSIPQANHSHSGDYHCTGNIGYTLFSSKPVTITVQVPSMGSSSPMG


Assays:
Assay in all cases: SPR, antibody captured, FcgR analyte
[1] = molecular target: T3, FcγRIa extracellular domain with C-terminal His tag (human, UniProt P12314 16-292)
T3 construct: also called FcgRIa; CD64; not shown: His tag at the C terminus

[2] = molecular target: T1, FcγRIIb extracellular domain with …
[3] = molecular target: T2, FcγRIIa R type extracellular domain …

T3 sequence (P12314 16-292): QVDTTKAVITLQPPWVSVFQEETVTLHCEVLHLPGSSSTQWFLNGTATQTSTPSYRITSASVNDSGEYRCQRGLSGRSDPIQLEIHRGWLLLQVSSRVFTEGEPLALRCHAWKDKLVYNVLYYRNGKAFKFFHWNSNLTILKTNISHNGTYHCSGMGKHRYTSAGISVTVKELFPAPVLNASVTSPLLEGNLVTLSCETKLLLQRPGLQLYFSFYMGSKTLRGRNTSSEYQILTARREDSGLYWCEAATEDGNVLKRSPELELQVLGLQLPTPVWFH

| Kd [1] [nM] | Kd [2] [nM] | Kd [3] [nM] | Binder |
| --- | --- | --- | --- |
| 7 | – | – | IL6R-BP249/IL6R-L (antibody, human IgG1, kappa, name in EU numbering, human IgG1) heavy: QVQLQESGPGLVKPSETLSLTCAVSGHSISHDHAWSWVRQPPGEGLEWIGFISYSGITNYNPSLQGRVTISRDNSKNTLYLQMNSLRAEDTAVYYCARSLARTTAMDYWGEGTLVTVSSASTKGPSVFPLAPSSKSTSGGTAALGCLVKDYFPEPVTVSWNSGALTSGVHTFPAVLQSSGLYSLSSVVTVPSSSLGTQTYICNVNHKPSNTKVDKKVEPKSCDKTHTCPPCPAPDYLGDDSVFLFPPKPKDTLMISRTPEVTCVVVDVSDEDGEVKFNWYVDGVEVHNAKTKPREEQDNSTYRVVSVLTVLHQDWLNGKEYKCKVSNKALPRPIEKTISKAKGQPREPQVYTLPPSRDELTKNQVSLTCLVKGFYPSDIAVEWESNGQPENNYKTTPPVLDSDGSFFLYSKLTVDKSRWQQGNVFSCSVMHEALHNHYTQESLSLSP light: not shown |
| 0.82 | 21 | – | IL6R-BP493/IL6R-L (antibody, human IgG1, kappa, name in EU numbering, human IgG1) heavy: QVQLQESGPGLVKPSETLSLTCAVSGHSISHDHAWSWVRQPPGEGLEWIGFISYSGITNYNPSLQGRVTISRDNSKNTLYLQMNSLRAEDTAVYYCARSLARTTAMDYWGEGTLVTVSSASTKGPSVFPLAPSSKSTSGGTAALGCLVKDYFPEPVTVSWNSGALTSGVHTFPAVLQSSGLYSLSSVVTVPSSSLGTQTYICNVNHKPSNTKVDKKVEPKSCDKTHTCPPCPAPELLGGDSVFLFPPKPKDTLMISRTPEVTCVVIDVAEEDGEVKFNWYVDGVEVHNAKTKPREEQDNSTYRVVSVLTVLHQDWLNGKEYKCKVSNKALPAPIEKTISKAKGQPREPQVYTLPPSRDELTKNQVSLTCLVKGFYPSDIAVEWESNGQPENNYKTTPPVLDSDGSFFLYSKLTVDKSRWQQGNVFSCSVMHEALHNHYTQESLSLSP light: not shown |
| 1 | – | – | IL6R-BP426/IL6R-L (antibody, human IgG1, kappa, name in EU numbering, human IgG1) heavy: QVQLQESGPGLVKPSETLSLTCAVSGHSISHDHAWSWVRQPPGEGLEWIGFISYSGITNYNPSLQGRVTISRDNSKNTLYLQMNSLRAEDTAVYYCARSLARTTAMDYWGEGTLVTVSSASTKGPSVFPLAPSSKSTSGGTAALGCLVKDYFPEPVTVSWNSGALTSGVHTFPAVLQSSGLYSLSSVVTVPSSSLGTQTYICNVNHKPSNTKVDKKVEPKSCDKTHTCPPCPAPDLLGDDSVFLFPPKPKDTLMISRTPEVTCVVVDVAEDDGEVKFNWYVDGVEVHNAKTKPREEQYNSTYRVVSVLTVLHQDWLNGKEYKCKVSNKALPRPIEKTISKAKGQPREPQVYTLPPSRDELTKNQVSLTCLVKGFYPSDIAVEWESNGQPENNYKTTPPVLDSDGSFFLYSKLTVDKSRWQQGNVFSCSVMHEALHNHYTQESLSLSP light: not shown |
| 8.3 | 9.7 | – | IL6R-BP495/IL6R-L (antibody, human IgG1, kappa, name in EU numbering, human IgG1) heavy: QVQLQESGPGLVKPSETLSLTCAVSGHSISHDHAWSWVRQPPGEGLEWIGFISYSGITNYNPSLQGRVTISRDNSKNTLYLQMNSLRAEDTAVYYCARSLARTTAMDYWGEGTLVTVSSASTKGPSVFPLAPSSKSTSGGTAALGCLVKDYFPEPVTVSWNSGALTSGVHTFPAVLQSSGLYSLSSVVTVPSSSLGTQTYICNVNHKPSNTKVDKKVEPKSCDKTHTCPPCPAPELLGDDSVFLFPPKPKDTLMISRTPEVTCVVVDVGEEDGEVKFNWYVDGVEVHNAKTKPREEQDNSTYRVVSVLTVLHQDWLNGKEYKCKVSNKALPRPIEKTISKAKGQPREPQVYTLPPSRDELTKNQVSLTCLVKGFYPSDIAVEWESNGQPENNYKTTPPVLDSDGSFFLYSKLTVDKSRWQQGNVFSCSVMHEALHNHYTQESLSLSP light: not shown |
| – | 200 | 6300 | IL6R-BP480/IL6R-L (antibody, human IgG1, kappa, name in EU numbering, human IgG1) heavy: QVQLQESGPGLVKPSETLSLTCAVSGHSISHDHAWSWVRQPPGEGLEWIGFISYSGITNYNPSLQGRVTISRDNSKNTLYLQMNSLRAEDTAVYYCARSLARTTAMDYWGEGTLVTVSSASTKGPSVFPLAPSSKSTSGGTAALGCLVKDYFPEPVTVSWNSGALTSGVHTFPAVLQSSGLYSLSSVVTVPSSSLGTQTYICNVNHKPSNTKVDKKVEPKSCDKTHTCPPCPAPDLLGDDSVFLFPPKPKDTLMISRTPEVTCVVVDLSEDDGEVKFNWYVDGVEVHNAKTKPREEQYNSTYRVVSVLTVLHQDWLNGKEYKCKVSNKALPAPIEKTISKAKGQPREPQVYTLPPSRDELTKNQVSLTCLVKGFYPSDIAVEWESNGQPENNYKTTPPVLDSDGSFFLYSKLTVDKSRWQQGNVFSCSVMHEALHNHYTQESLSLSP light: not shown |
| 1 | – | – | IL6R-BP435/IL6R-L (antibody, human IgG1, kappa, name in EU numbering, human IgG1) heavy: QVQLQESGPGLVKPSETLSLTCAVSGHSISHDHAWSWVRQPPGEGLEWIGFISYSGITNYNPSLQGRVTISRDNSKNTLYLQMNSLRAEDTAVYYCARSLARTTAMDYWGEGTLVTVSSASTKGPSVFPLAPSSKSTSGGTAALGCLVKDYFPEPVTVSWNSGALTSGVHTFPAVLQSSGLYSLSSVVTVPSSSLGTQTYICNVNHKPSNTKVDKKVEPKSCDKTHTCPPCPAPDLLGDDSVFLFPPKPKDTLMISRTPEVTCVVVDVSDEDGEVKFNWYVDGVEVHNAKTKPREEQDNSTYRVVSVLTVLHQDWLNGKEYKCKVSNAALPRPTEKTISKAKGQPREPQVYTLPPSRDELTKNQVSLTCLVKGFYPSDIAVEWESNGQPENNYKTTPPVLDSDGSFFLYSKLTVDKSRWQQGNVFSCSVMHEALHNHYTQESLSLSP light: not shown |
| 2.1 | 25 | – | IL6R-BP501/IL6R-L (antibody, human IgG1, kappa, name in EU numbering, human IgG1) heavy: QVQLQESGPGLVKPSETLSLTCAVSGHSISHDHAWSWVRQPPGEGLEWIGFISYSGITNYNPSLQGRVTISRDNSKNTLYLQMNSLRAEDTAVYYCARSLARTTAMDYWGEGTLVTVSSASTKGPSVFPLAPSSKSTSGGTAALGCLVKDYFPEPVTVSWNSGALTSGVHTFPAVLQSSGLYSLSSVVTVPSSSLGTQTYICNVNHKPSNTKVDKKVEPKSCDKTHTCPPCPAPELLGDDSVFLFPPKPKDTLMISRTPEVTCVVIDVAEEDGEVKFNWYVDGVEVHNAKTKPREEQYNSTYRVVSVLTVLHQDWLNGKEYKCKVSNKALPAPIEKTISKAKGQPREPQVYTLPPSRDELTKNQVSLTCLVKGFYPSDIAVEWESNGQPENNYKTTPPVLDSDGSFFLYSKLTVDKSRWQQGNVFSCSVMHEALHNHYTQESLSLSP light: not shown |
| – | 20 | 850 | IL6R-BP557/IL6R-L (antibody, human IgG1, kappa, name in EU numbering, human IgG1) heavy: QVQLQESGPGLVKPSETLSLTCAVSGHSISHDHAWSWVRQPPGEGLEWIGFISYSGITNYNPSLQGRVTISRDNSKNTLYLQMNSLRAEDTAVYYCARSLARTTAMDYWGEGTLVTVSSASTKGPSVFPLAPSSKSTSGGTAALGCLVKDYFPEPVTVSWNSGALTSGVHTFPAVLQSSGLYSLSSVVTVPSSSLGTQTYICNVNHKPSNTKVDKKVEPKSCDKTHTCPPCPAPELLGDDSVFLFPPKPKDTLMISRTPEVTCVVVDVGDEDGEVKFNWYVDGVEVHNAKTKPREEQDNSTYRVVSVLTVLHQDWLNGKEYKCKVSNKALPRPIEKTISKAKGQPREPQVYTLPPSRDELTKNQVSLTCLVKGFYPSDIAVEWESNGQPENNYKTTPPVLDSDGSFFLYSKLTVDKSRWQQGNVFSCSVMHEALHNHYTQESLSLSP light: not shown |
| 2 | 2.6 | 80 | IL6R-BP445/IL6R-L (antibody, human IgG1, kappa, name in EU numbering, human IgG1) heavy: QVQLQESGPGLVKPSETLSLTCAVSGHSISHDHAWSWVRQPPGEGLEWIGFISYSGITNYNPSLQGRVTISRDNSKNTLYLQMNSLRAEDTAVYYCARSLARTTAMDYWGEGTLVTVSSASTKGPSVFPLAPSSKSTSGGTAALGCLVKDYFPEPVTVSWNSGALTSGVHTFPAVLQSSGLYSLSSVVTVPSSSLGTQTYICNVNHKPSNTKVDKKVEPKSCDKTHTCPPCPAPDLLGDDSVFLFPPKPKDTLMISRTPEVTCVVIDVAEEDGEVKFNWYVDGVEVHNAKTKPREEQYNSTYRVVSVLTVLHQDWLNGKEYKCKVSNKALPRPIEKTISKAKGQPREPQVYTLPPSRDELTKNQVSLTCLVKGFYPSDIAVEWESNGQPENNYKTTPPVLDSDGSFFLYSKLTVDKSRWQQGNVFSCSVMHEALHNHYTQESLSLSP light: not shown |
| 7.4 | – | 350 | IL6R-BP264/IL6R-L (antibody, human IgG1, kappa, name in EU numbering, human IgG1) heavy: QVQLQESGPGLVKPSETLSLTCAVSGHSISHDHAWSWVRQPPGEGLEWIGFISYSGITNYNPSLQGRVTISRDNSKNTLYLQMNSLRAEDTAVYYCARSLARTTAMDYWGEGTLVTVSSASTKGPSVFPLAPSSKSTSGGTAALGCLVKDYFPEPVTVSWNSGALTSGVHTFPAVLQSSGLYSLSSVVTVPSSSLGTQTYICNVNHKPSNTKVDKKVEPKSCDKTHTCPPCPAPDLLGDDSVFLFPPKPKDTLMISRTPEVTCVVVDVSEEDGEVKFNWYVDGVEVHNAKTKPREEQDNSTYRVVSVLTVLHQDWLNGKEYKCKVSNKALPRPIEKTISKAKGQPREPQVYTLPPSRDELTKNQVSLTCLVKGFYPSDIAVEWESNGQPENNYKTTPPVLDSDGSFFLYSKLTVDKSRWQQGNVFSCSVMHEALHNHYTQESLSLSP light: not shown |
| 4.5 | 92 | – | IL6R-BP268/IL6R-L (antibody, human IgG1, kappa, name in EU numbering, human IgG1) heavy: QVQLQESGPGLVKPSETLSLTCAVSGHSISHDHAWSWVRQPPGEGLEWIGFISYSGITNYNPSLQGRVTISRDNSKNTLYLQMNSLRAEDTAVYYCARSLARTTAMDYWGEGTLVTVSSASTKGPSVFPLAPSSKSTSGGTAALGCLVKDYFPEPVTVSWNSGALTSGVHTFPAVLQSSGLYSLSSVVTVPSSSLGTQTYICNVNHKPSNTKVDKKVEPKSCDKTHTCPPCPAPDLLGDDSVFLFPPKPKDTLMISRTPEVTCVVVDVSEEDGEVKFNWYVDGVEVHNAKTKPREEQDNSTYRVVSVLTVLHQDWLNGKEYKCKVSNKALPAPIEKTISKAKGQPREPQVYTLPPSRDELTKNQVSLTCLVKGFYPSDIAVEWESNGQPENNYKTTPPVLDSDGSFFLYSKLTVDKSRWQQGNVFSCSVMHEALHNHYTQESLSLSP light: not shown |
